Changes are numbered by the printed parent chain.

The text below walks through data of patent US20230192896A1 (BIOVERATIV THERAPEUTICS, published 2023).

To fix the notation:
B1: BIIB-9-469 (antibody, V domains shown)
VH: QVQLVQSGAEVKKPGASVKVSCKASGYTFTSYYMHWVRQAPGQGLEWMGIINPSGGSTSYAQKFQGRVTMTRDTSTSTVYMELSSLRSEDTAVYYCARDLGYGRSYDFDLWGRGTLVTVSS
VL: EIVMTQSPATLSVSPGERATLSCRASQSVSSNLAWYQQKPGQAPRLLIFGASTRATGIPARFSGSGSGTEFTLTISSLQSEDFAVYYCQQSNNFPFTFGGGTKVEIK
notes: IgG
B2: BIIB-9-611 (antibody, V domains shown)
VH: QVQLVQSGAEVKKPGASVKVSCKASGYTFTSYYMHWVRQAPGQGLEWMGIINPSGGSTSYAQKFQGRVTMTRDTSTSTVYMELSSLRSEDTAVYYCAREVISRVSYFDLWGRGTLVTVSS
VL: B1 VL with F49Y, S91D, N93I, F94H, F96Y
notes: IgG
B3: BIIB-9-588 (antibody, V domains shown)
VH: QVQLVQSGAEVKKPGASVKVSCKASGYTFTSYYMHWVRQAPGQGLEWMGIINPSGGSTTYAQKFQGRVTMTRDTSTSTVYMELSSLRSEDTAVYYCARDGGGSYDYWSGYWYDVWGQGTTVTVSS
VL: B1 VL with F49Y, S91A, N92Y, F94W
notes: IgG
B4: BIIB-9-619 (antibody, V domains shown)
VH: QVQLVQSGAEVKKPGASVKVSCKASGYTFTSYYMHWVRQAPGQGLEWMGIINPSGGSTSYAQKFQGRVTMTRDTSTSTVYMELSSLRSEDTAVYYCARDGPRVSDYYMDVWGKGTTVTVSS
VL: EIVLTQSPATLSLSPGERATLSCRASQSVSSYLAWYQQKPGQAPRLLIYDASNRATGIPARFSGSGSGTDFTLTISSLEPEDFAVYYCQQRDNWPFTFGGGTKVEIK
notes: IgG
B5: BIIB-9-419 (antibody, V domains shown)
VH: QVQLVQSGAEVKKPGASVKVSCKASGYTFTSYYMHWVRQAPGQGLEWMGIINPSGGSTSYAQKFQGRVTMTRDTSTSTVYMELSSLRSEDTAVYYCAREPTFYASYFDLWGRGTLVTVS
VL: B4 VL with L4M, A51S, R91V, D92S, N93T, W94H, F96Y
notes: IgG
B6: BIIB-9-567 (antibody, V domains shown)
VH: QVQLVQSGAEVKKPGASVKVSCKASGYTFTSYYMHWVRQAPGQGLEWMGIINPSGGSTSYAQKFQGRVTMTRDTSTSTVYMELSSLRSEDTAVYYCARLGRRYYAYDGMDVWGQGTTVTVSS
VL: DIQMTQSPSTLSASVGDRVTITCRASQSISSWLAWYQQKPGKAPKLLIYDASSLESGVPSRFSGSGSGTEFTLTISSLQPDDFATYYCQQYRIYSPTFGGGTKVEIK
notes: IgG
B7: BIIB-9-564 (antibody, V domains shown)
VH: QVQLQESGPGLVKPSETLSLTCAVSGYSISSGYYWAWIRQPPGKGLEWIGSIYHSGSTYYNPSLKSRVTISVDTSKNQFSLKLSSVTAADTAVYYCARDPGYSWEYFDYWGQGTLVTVSS
VL: DIQMTQSPSSLSASVGDRVTITCRASQSISSYLNWYQQKPGKAPKLLIYAASSLQSGVPSRFSGSGSGTDFTLTISSLQPEDFATYYCQQSVAVPPTFGGGTKVEIK
notes: IgG; also called BIB-4-564
B8: BIIB-9-626 (antibody, V domains shown)
VH: B2 VH with I50V, E99D, V100L, I101Q, S102Y, R103S, V104M, S105T, L109Y, R112Q
VL: DIQMTQSPSTLSASVGDRVTITCRASQSISSWLAWYQQKPGKAPKLLIYKASSLESGVPSRFSGSGSGTEFTLTISSLQPDDFATYYCQQDGSYPPLTFGGGTKVEIK
notes: IgG
B9: BIIB-9-883 (antibody, V domains shown)
VH: QVQLVQSGAEVKKPGASVKVSCKASGYTFTSYYMHWVRQAPGQGLEWMGIINPSGGSTSYAQKFQGRVTMTRDTSTSTVYMELSSLRSEDTAVYYCARDGRLSYTWDRWGQGTLVTVSS
VL: DIQMTQSPSSLSASVGDRVTITCQASQDITNYLNWYQQKPGKAPKLLIYDASNLETGVPSRFSGSGSGTDFTFTISSLQPEDIATYYCQQADHFPFTFGGGTKVEIK
notes: IgG

This assay concerns the target T1, FIXa-SM (FIXa+EGR-CMK) (human, UniProt P00740 47-191; P00740 227-461, EGR-CMK (L-Glu-Gly-Arg chloromethyl ketone) covalently bound to the active site).
T1 construct: BLI antigen bought from Haematologic Technologies (HCIXA-EGR); also called FIXa with substrate mimic
Nature of the assay: BLI; class meaning: paragraph 914. On the technique in general: BLI is a label-free optical method that tracks binding on a fibre tip over time.
Turning to B1, the binding result was “binds”.

Take B2: the binding result was “binds”.

In the case of B3, the binding result is “binds”.

As to B4, the binding result is given as “binds”.

With B5, the binding result was “binds”.

As for B6, the binding result is given as “binds”.

Consider B7, for which the binding result is listed as “binds”.

As for B8, the binding result is reported as “binds”.

Take B9: the binding result is “binds”.
